According to patent US20210379046A1, “Methods of Treating Diseases Using Kinase Modulators” (Memorial Sloan Kettering Cancer Center, priority 2018, published 2021):

Target: non-WT1-derived peptide expressed on TPC1 cells in complex with HLA-A*02:01 (human)
Experiment: cell-based or functional assay

ESK1 (antibody)
improvement of specific lysis, chromium-51 release ADCC, TPC1 cells pretreated with 100 nM trametinib: 10% | percent specific lysis, chromium-51 release ADCC with human PBMCs, 50:1 E:T, TPC1 cells pretreated with 10 nM AST487: 20% | percent specific lysis, chromium-51 release ADCC with human PBMCs, 50:1 E:T, TPC1 cells pretreated with DMSO: 3%
